The assay has as its target T1, Human 14-3-3γ (human, UniProt P61981 2-247).
T1 sequence: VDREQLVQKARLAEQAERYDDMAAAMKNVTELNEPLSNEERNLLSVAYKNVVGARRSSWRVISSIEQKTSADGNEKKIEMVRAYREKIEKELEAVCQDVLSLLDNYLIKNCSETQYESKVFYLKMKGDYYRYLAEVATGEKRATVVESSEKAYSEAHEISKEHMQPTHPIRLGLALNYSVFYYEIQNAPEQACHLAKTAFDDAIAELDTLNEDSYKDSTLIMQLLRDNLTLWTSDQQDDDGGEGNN
Put plainly: crystal structure.

Square brackets hold non-standard residues; d marks the D form. Ends that are not written are not given here. pS = N[C@@H](COP(=O)(O)O)C(=O)O

B1: THp-(1-43), Ser19-phosphorylated N-terminal peptide of human tyrosine hydroxylase (peptide)
peptide: MPTPDATTPQAKGFRRAV[pS]ELDAKQAEAIMSPRFIGRRQSLIE
On to B1, for which the binding result is recorded as “binds”.

These data come from publication PMC3872242 (Journal of molecular biology, 2013).
